Results: patent US20130177570A1 (PURDUE RESEARCH FOUNDATION, published 2013)

B1: m909 Fab (Fab, V domains shown)
VH: EVQLVQSGAEVKKPGASVKVSCKASGYTFTSYAMHWVRQAPGQRLEWMGWINAGNGNTKYSQKFQGRVTITRDTSASTAYMELSSLRSEDTAVYYCARDISYGSFDYWGQGTLVTVSS
VL: SSELTQDPAVSVALGQTVRITCQGDSLRSNYANWYQQKPGQAPVLVIYGQNNRPSGIPDRFSGSSSGNTASLTITGAQAADEADYYCDSRVSTGNHVVFGGGTKLTVLG
notes: Soluble Fab expressed in E. coli HB2151; The phagemid adds His6 and FLAG tags at the C-terminus of the Fab
B2: m923 (Fab, V domains shown)
VH: B1 VH
VL: SSELTQDPAVSVALGQTVRITCQGDNLRSYYASWYRQKSGQAPVLVIYGKNNRPSGIPDRFSGSSSGNTASLTITAAQAEDEADYYCHSRKSRGNHLLFGGGTKLTVLG
notes: Clone from the Fab phage library after light chain shuffling; also called clone m923

What was measured:
[1] = target: T1, recombinant human folate receptor beta (FRβ), residues 22 to 236 (human, UniProt P14207 22-236); test: ELISA, recombinant FRβ coated, Fab detected with anti-FLAG-HRP
T1 construct: Produced in SF9 insect cells with baculovirus, then purified by nickel column and gel filtration; also called recombinant FRβ; FRβ protein
T1 sequence (P14207 other isoform, or with tags, fused parts or gaps): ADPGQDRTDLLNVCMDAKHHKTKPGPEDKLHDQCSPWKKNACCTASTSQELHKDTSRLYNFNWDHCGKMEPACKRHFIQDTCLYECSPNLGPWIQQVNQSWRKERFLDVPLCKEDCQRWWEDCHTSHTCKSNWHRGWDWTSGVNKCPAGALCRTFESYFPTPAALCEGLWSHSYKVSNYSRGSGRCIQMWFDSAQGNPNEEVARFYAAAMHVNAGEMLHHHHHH
Procedure: To characterize the m909 antibody, an ELISA was performed as follows. FRβ, diluted in PBS, was coated on half of the wells of a 96 well plate at 50 ng/well overnight at 4° C. Wells were blocked with 100 μl of 4% milk/PBS (MPBS) for 1 hr at 37° C. For Fab binding kinetics, Fab was titrated from 3000 nM to 0.038 nM (1:5 serial dilutions) then 50 μl of diluted Fab was added to duplicate wells. After 2 hr incubation at 37° C., the wells were washed four times with PBST (PBS+0.05% Tween 20). Bound Fab was detected by incubating with anti-FLAG-horseradish peroxidase (HRP) mAb (1:1000) (Sigma) for 1 hr at 37° C. Wells were washed again with PBST. The HRP substrate 2,2′-azino-bis(3-ethylbenzthiazoline-6-sulphonic acid) (ABTS) was added (50 μl/well), and the absorbance at 405 nm was determined. For ELISA with IgG, a goat anti-human Fc IgG conjugated with HRP was used at 1:1000. FIG. 3 is a graph depicting the binding of m909 IgG₁ to FRβ.

[2] = target: T1, recombinant human folate receptor beta …; test: phage display panning and screening on coated FRβ protein
Procedure: Purified FRβ was used for panning of a human naïve (not deliberately immunized) Fab phage library. Briefly, 2 μg of FRβ was coated on a Maxisorp plate, which was then incubated with library phage (˜10¹² pfu) for 2 hr. After extensively washing the wells with PBS+0.05% Tween 20 (PBST), phage were rescued by incubating with exponentially growing TG1 bacteria and helper phage. The panning procedure was repeated three more times with more stringent conditions in the latter two rounds, including decreased amounts of FRβ protein and additional washes with PBST. Three hundred colonies were picked from the last two rounds of panning and rescued with helper phage.

Binder | EC50 [1] | binding result [2]
B1 | 0.02 µM | –
B2 | – | binds
